This note sets out measurements from PMC9637814, “Aurora A–mediated pyruvate kinase M2 phosphorylation promotes biosynthesis with glycolytic metabolites and tumor cell cycle progression” (The Journal of Biological Chemistry, 2022).

Data set [1] deals with the molecule itself. As to the kind of experiment: cross-linking; Flag-PKM2 purified on Flag beads from H1299 extracts, DSS crosslinking (1.5 mM, room temperature, 30 min), immunoblot. A general note: In western blotting, separated proteins are transferred to a membrane and probed.
Data set [2] deals with the molecule itself. As to the kind of experiment: SEC-MALS; 1 mg/ml protein in 150 mM NaCl, 20 mM Tris pH 7.5; Superdex 200 Increase, 0.3 ml/min; tetramer and monomer.
The target in another data set is T1, His-PKM2 (human, UniProt P14618 1-531).
T1 construct: full-length PKM2 cloned into the EcoRI/BamHI sites of pET-22b; also called His-tagged PKM2; His-PKM2 WT; source: E. coli, purified (nickel column)
The data set can be described thus: pull-down; GST-tagged protein on resin incubated with purified His-PKM2 for 2 h at 4 °C, eluted with 10 mM GSH in 50 mM Tris pH 8.0, immunoblot. The conditions noted are these: both partners purified.

T1 sequence (P14618 whole entry): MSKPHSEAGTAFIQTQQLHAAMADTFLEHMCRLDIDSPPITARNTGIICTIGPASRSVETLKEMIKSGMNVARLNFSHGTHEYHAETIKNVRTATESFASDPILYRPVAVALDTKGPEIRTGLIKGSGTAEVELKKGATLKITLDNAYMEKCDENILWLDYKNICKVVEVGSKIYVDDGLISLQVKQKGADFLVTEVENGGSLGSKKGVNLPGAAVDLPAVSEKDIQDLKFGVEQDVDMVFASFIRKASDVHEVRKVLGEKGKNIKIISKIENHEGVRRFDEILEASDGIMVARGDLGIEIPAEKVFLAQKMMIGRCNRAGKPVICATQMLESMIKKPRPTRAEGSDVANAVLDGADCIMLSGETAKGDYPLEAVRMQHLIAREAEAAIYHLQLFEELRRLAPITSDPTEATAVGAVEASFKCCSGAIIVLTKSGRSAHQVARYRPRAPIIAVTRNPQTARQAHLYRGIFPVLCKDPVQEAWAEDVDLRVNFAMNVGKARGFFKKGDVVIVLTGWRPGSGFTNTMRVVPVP

B1: shRNA-resistant Flag-PKM2 T45A (natural protein)
chain: not shown
notes: Flag-tagged human PKM2 T45A with two silent nucleotide substitutions in the shRNA-targeted region, in the pGIPZ system; Monomer and tetramer are both spoken of; 4 copies is the tetramer seen by cross-linking; also called PKM2 T45A mutant; source: H1299 with endogenous PKM2 knocked down, retroviral expression, purified on Flag beads
For orientation: stoichiometry N means the number of molecules, sites or subunits per partner or assembly. With B1, in data set [1], the “stoichiometry N” value was 4.

B2: His-PKM2 T45A mutant (natural protein)
chain: not shown
notes: Monomer and tetramer are both spoken of; source: E. coli, purified
Turning to B2, the “stoichiometry N” value in data set [2] is 4.

B3: GST-Aurora A (natural protein, human, UniProt O14965 1-403, looked up)
chain: MDRSKENCISGPVKATAPVGGPKRVLVTQQFPCQNPLPVNSGQAQRVLCPSNSSQRIPLQAQKLVSSHKPVQNQKQKQLQATSVPHPVSRPLNNTQKSKQPLPSAPENNPEEELASKQKNEESKKRQWALEDFEIGRPLGKGKFGNVYLAREKQSKFILALKVLFKAQLEKAGVEHQLRREVEIQSHLRHPNILRLYGYFHDATRVYLILEYAPLGTVYRELQKLSKFDEQRTATYITELANALSYCHSKRVIHRDIKPENLLLGSAGELKIADFGWSVHAPSSRRTTLCGTLDYLPPEMIEGRMHDEKVDLWSLGVLCYEFLVGKPPFEANTYQETYKRISRVEFTFPDFVTEGARDLISRLLKHNPSQRPMLREVLEHPWITANSSKPSNCQNKESASKQS
notes: full-length Aurora A cloned into the BamH/XhoI sites of p-GEX-5X-3
In the case of B3, in the data set with His-PKM2, the binding result is “binds”.
